From article PMC5458078, “Global mapping of CARM1 substrates defines enzyme specificity and substrate recognition” (Nature Communications, 2017)

System: GST fused MED12, BAF155 and PABP1 peptides
Experiment: In vitro methylation of GST fused peptides by recombinant CARM1 proteins, autoradiography
Type: biochemical
Settings: 3H-SAM, 1–4 h, 30 °C; compared with CARM1 FL and CARM1 28–608
Method: The FL and N-terminal domain-deleted version of human CARM1 cDNAs, and other PRMT FL cDNAs were cloned into pFN21K Halo Tag CMV Flexi mammalian expression vector (Promega, Madison, WI) using the unique Sgfl and Pmel site[55]. To express the protein, DNA constructs were transiently transfected into HEK293T CARM1 KO cells in 15 cm dishes using transIT-LT1 reagent (Mirus Bio, Madison, WI) according to the manufacturer's protocol. Proteins were allowed to express for 48 h. Cell pellets were then collected and lysed in lysis buffer (50 mM HEPES, pH 7.5, 150 mM NaCl, 0.005% NP-40, 0.5 mM EDTA, supplemented with 1 × protease inhibitor cocktail before use). The cells were sonicated on ice using a Branson Sonifier 450 with a microtip at 35% amplitude (10 s on, 30 s off, 6 cycles). The crude lysate was cleared by centrifugation (15,000 r.p.m., 4 °C, 20 min). […] The resin was centrifuged at 3,000 r.p.m. for 5 min, and the supernatant containing the cleaved protein was collected and protein concentration was determined using the Bradford assay (Thermo Scientific, Rockford, IL). Protein purity was assessed by running SDS–PAGE and Coomassie Blue staining.
The DNA fragments were cloned into pGEX-2T GST expression vector (GE Healthcare, Waukesha, WI). […] Protein concentration was then determined using Bradford assay and protein purity was assessed by SDS–PAGE and Coomassie Blue staining. […]

B1: CARM1 140–608: CARM1 140–608 lacks the first 140 residues encompassing the EVH1 domain (protein)
chain: RTEESSAVQYFQFYGYLSQQQNMMQDYVRTGTYQRAILQNHTDFKDKIVLDVGCGSGILSFFAAQAGARKIYAVEASTMAQHAEVLVKSNNLTDRIVVIPGKVEEVSLPEQVDIIISEPMGYMLFNERMLESYLHAKKYLKPSGNMFPTIGDVHLAPFTDEQLYMEQFTKANFWYQPSFHGVDLSALRGAAVDEYFRQPVVDTFDIRILMAKSVKYTVNFLEAKEGDLHRIEIPFKFHMLHSGLVHGLAFWFDVAFIGSIMTVWLSTAPTEPLTHWYQVRCLFQSPLFAKAGDTLSGTCLLIANKRQSYDISIVAQVDQTGSKSSNLLDLKNPFFRYTGTTPSPPPGSHYTSPSENMWNTGSTYNLSSGMAVAGMPTAYDLSSVIASGSSVGHNNLIPLANTGIVNHTHSRMGSIMSTGIVQGSSGAQGSGGGSTSAHYAVNSQFTMGGPAISMASPMSIPTNTMHYGS
modifications: left off: FLAG, end not stated, kept
notes: CARM1 140–608 lacks the first 140 residues encompassing the EVH1 domain
  Methylation of GST fused MED12, BAF155 and PABP1 peptides and other protein substrates: greatly reduced ability
